Assay results from paper PMC4966956, “Analysis of the Bile Salt Export Pump (ABCB11) Interactome Employing Complementary Approaches” (PLoS ONE, 2016).

Molecular target: T1, bile salt export pump (BSEP), purified, with C-terminal affinity tags (human, UniProt O95342 1-1321)
T1 construct: bile salt export pump (BSEP, ABCB11), human; construct pSGP18-2μ-BSEP; also called purified BSEP; pSGP18-2μ-BSEP; not shown: His tag (inferred from the removal of the tags on Ni-NTA), C-terminal, kept
Assay: pull-down; Strep-tagged partner immobilised on Strep-Tactin resin, detergent-solubilised purified BSEP added for 30 min at 4°C; 50 mM sodium phosphate pH 7, 150 mM NaCl, 20% glycerol, 0.022% DDM; immunoblot against BSEP and Strep-tag II
Details: both partners purified

T1 sequence (O95342 whole entry): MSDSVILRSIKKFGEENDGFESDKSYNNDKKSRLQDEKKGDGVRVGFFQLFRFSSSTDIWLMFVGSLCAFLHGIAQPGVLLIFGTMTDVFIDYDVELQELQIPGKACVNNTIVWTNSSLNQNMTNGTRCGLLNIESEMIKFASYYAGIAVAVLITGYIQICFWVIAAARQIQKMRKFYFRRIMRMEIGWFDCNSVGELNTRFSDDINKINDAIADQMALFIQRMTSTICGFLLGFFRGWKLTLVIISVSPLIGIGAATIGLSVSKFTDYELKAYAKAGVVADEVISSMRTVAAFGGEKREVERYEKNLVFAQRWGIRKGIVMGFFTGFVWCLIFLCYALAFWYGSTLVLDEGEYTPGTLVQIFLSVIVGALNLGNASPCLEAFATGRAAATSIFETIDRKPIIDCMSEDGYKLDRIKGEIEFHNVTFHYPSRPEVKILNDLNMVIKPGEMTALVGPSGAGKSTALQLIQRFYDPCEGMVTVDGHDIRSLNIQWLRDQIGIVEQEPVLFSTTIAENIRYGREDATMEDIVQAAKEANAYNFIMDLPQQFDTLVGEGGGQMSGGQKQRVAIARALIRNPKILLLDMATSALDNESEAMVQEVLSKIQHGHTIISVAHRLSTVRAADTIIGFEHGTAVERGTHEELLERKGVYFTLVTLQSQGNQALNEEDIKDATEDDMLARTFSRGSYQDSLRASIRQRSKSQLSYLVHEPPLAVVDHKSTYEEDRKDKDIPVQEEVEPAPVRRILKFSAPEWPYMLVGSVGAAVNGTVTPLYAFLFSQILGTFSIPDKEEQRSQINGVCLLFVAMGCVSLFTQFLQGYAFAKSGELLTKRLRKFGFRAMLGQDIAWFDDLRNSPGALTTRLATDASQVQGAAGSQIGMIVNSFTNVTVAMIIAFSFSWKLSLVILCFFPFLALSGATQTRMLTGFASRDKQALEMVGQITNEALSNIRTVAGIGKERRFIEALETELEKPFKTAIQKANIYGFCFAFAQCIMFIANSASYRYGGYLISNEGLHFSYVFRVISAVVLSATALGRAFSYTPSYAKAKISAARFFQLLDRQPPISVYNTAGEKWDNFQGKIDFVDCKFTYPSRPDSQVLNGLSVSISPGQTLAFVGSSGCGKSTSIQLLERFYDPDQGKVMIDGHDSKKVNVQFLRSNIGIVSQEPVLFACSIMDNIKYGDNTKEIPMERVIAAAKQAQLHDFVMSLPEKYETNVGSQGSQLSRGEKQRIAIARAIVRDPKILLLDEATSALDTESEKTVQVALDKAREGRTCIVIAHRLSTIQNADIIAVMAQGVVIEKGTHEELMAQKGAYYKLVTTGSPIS

B1: BACS_(77-690), Strep-tagged, purified (domain or fragment, human, UniProt Q9Y2P5-1 77-690, looked up)
chain: PARLPPGLRWLPADVIFLAKILHLGLKIRGCLSRQPPDTFVDAFERRARAQPGRALLVWTGPGAGSVTFGELDARACQAAWALKAELGDPASLCAGEPTALLVLASQAVPALCMWLGLAKLGCPTAWINPHGRGMPLAHSVLSSGARVLVVDPDLRESLEEILPKLQAENIRCFYLSHTSPTPGVGALGAALDAAPSHPVPADLRAGITWRSPALFIYTSGTTGLPKPAILTHERVLQMSKMLSLSGATADDVVYTVLPLYHVMGLVVGILGCLDLGATCVLAPKFSTSCFWDDCRQHGVTVILYVGELLRYLCNIPQQPEDRTHTVRLAMGNGLRADVWETFQQRFGPIRIWEVYGSTEGNMGLVNYVGRCGALGKMSCLLRMLSPFELVQFDMEAAEPVRDNQGFCIPVGLGEPGLLLTKVVSQQPFVGYRGPRELSERKLVRNVRQSGDVYYNTGDVLAMDREGFLYFRDRLGDTFRWKGENVSTHEVEGVLSQVDFLQQVNVYGVCVPGCEGKVGMAAVQLAPGQTFDGEKLYQHVRAWLPAYATPHFIRIQDAMEVTSTFKLMKTRLVREGFNVGIVVDPLFVLDNRAQSFRPLTAEMYQAVCEGTWRL
notes: bile acyl-CoA synthetase (BACS, SLC27A5), human, residues 77-690, without the N-terminal membrane anchor, in pET-51b(+); vector pET-51b(+); also called BACS lacking its N-terminal membrane anchor; bile acyl-CoA synthetase; source: E. coli Rosetta (DE3) pLysS, purified (Strep-Tactin)
binding result: binds
